# Experimental data: patent US8916159B2, “Selenocysteine mediated hybrid antibody molecules” (The United States of America, as represented by the …, priority 2007, dated 2014)
# Read-outs that look alike come from different tables or passages of the source. Non-standard residues stand in square brackets, D forms with d. Groups on a side chain read outwards from the residue. No end group written: not given here. folate‑alkyne = folate derivative bearing an alkyne group; Sec = N[C@@H](C[SeH])C(=O)O; biotin‑azide = biotin-azide
# Assays:
# folate receptor = target: T1, folate receptor (Homo sapiens, UniProt P15328); assay: Flow cytometry binding to SKOV-3 cells expressing folate receptor; conditions: SKOV-3, three click reaction conditions, FIG. 17
# T1 construct: endogenous in cells; host or cells: SKOV-3
# Procedure: The results are depicted in the flow cytometry plot of FIG. 17.
# The folate was further equipped with an alkyne group using methods described in Thomas et al., Poster MEDI-409, 238th ACS National Meeting, Washington, D.C. (Aug. 16-20, 2009). Using azide-alkyne Huisgen cycloaddition (“click chemistry”) under various reaction conditions, biotin-azide was added to the resulting Fc-Sec-His/folate-alkyne. The results of three reaction conditions are also depicted in the flow cytometry plot of FIG. 17.
# integrin α4 = target: T2, integrin α4 (Homo sapiens, UniProt P05556+P13612); assay: Competition with anti-integrin α4 mAb for binding to integrin α4β1-expressing lymphoma cells; conditions: PEG-SU-Lys-Lys-mal linker conjugate, FIG. 14
# T2 construct: endogenous in cells
# Source text: Using solid-phase synthesis techniques as described in Thomas et al., Bioorg. Medicinal Chem. Letters, 18: 5785-88 (2008), the PEG-SU-Lys-Lys-mal linker was used to couple LLP2A to Fc-Sec. A biotin reporter molecule was employed as described in Example 2 to allow detection of Fc covalent adducts by avidin pull-down experiments followed by ELISA visualization. The Fc-Sec-LLP2A conjugate was then incupated with integrin α4β1-expressing cells. The cells were washed and then treated with Cy5-labeled rabbit anti-human IgG. Under these conditions, cells only fluoresced if both the Fc and LLP2A components of the hybrid construct were present.
# Raji cells [1] = conditions: 0.6 μM; for complement-dependent cytotoxicity with rabbit complement: 10% rabbit complement 2 hours 37° C.
# Procedure: To determine whether Sec-conjugation had any effect on the cytotoxic effects of Rituximab, Raji cells were centrifuged and resuspended in 1% (v/v) FCS/PBS, and aliquots of 50 μL containing 5×10^5 cells were distributed into a V-bottom 96-well plate (Corning). After incubation with Rituximab, Rituxi-Sec-His/fluorescein, or Rituxi-Fab-Sec-His/biotin (0.6 μM) for 1 hour on ice, cells were washed twice and incubated with 10% rabbit complement of 3-4 weeks old rabbits (Pel-Freez) for 2 hours at 37° C. After the addition of 100 μg/ml propidium iodide (PI), dead cells were detected by PI accumulation using a FACScan instrument (Becton-Dickinson).
# Raji cells [2] = assay: Flow cytometry binding to Raji cells; design: species or system Human; conditions: for fluorescence signal on Raji cells after exposure of protein to FITC maleimide derivative: FIG. 11C
# Procedure: Flow cytometry assays were conducted on the resulting conjugates. Human Burkitt's lymphoma cell line Raji was purchased from ATCC. All incubations were for 1 hour on ice. […] After washing twice with 1% (v/v) FCS/PBS, the cells were incubated with a 1:25 dilution of PE-coupled streptavidin (BD Biosciences) or with FITC-coupled goat anti-human Fab polyclonal (Fab′)2 fragments (Jackson ImmunoResearch Laboratories). […] After washing twice as before, the cells were resuspended in 400 μL 1% (v/v) FCS/PBS and analyzed using a FACScan instrument (Becton-Dickinson). For the competition experiment, the cells were first incubated with the anti-CD52 monoclonal antibody CAMPATH® or Rituximab (all 0.6 μM). For detection, a 1:25 dilution of PE-coupled streptavidin (BD Biosciences) was used.
# [3] = Serum levels in mice after i.v. injection, flow cytometry using Raji cells; assay type: in vivo, C57BL/6 mice; conditions: i.v. 100 μL of 3 mg/mL, bleeds 30 min to 96 h
# Procedure: The mouse study was carried out by Biocon, Inc. (Rockville, Md.) in accordance with the Guide for the Care and Use of Laboratory Animals published by the National Institutes of Health. […] Sera from retro-orbital bleeds were prepared 30 min, 24 h, 48 h, 72 h, and 96 h after injection. Sera were diluted ten-fold in 1% (v/v) FCS/PBS and analyzed by flow cytometry using Raji cells and Cy5-coupled goat anti-human F(ab′)2 polyclonal antibodies (Jackson ImmunoResearch) or PE-coupled streptavidin as described in Example 10 (FIG. 16C).
# T1 sequence (P15328 25-234): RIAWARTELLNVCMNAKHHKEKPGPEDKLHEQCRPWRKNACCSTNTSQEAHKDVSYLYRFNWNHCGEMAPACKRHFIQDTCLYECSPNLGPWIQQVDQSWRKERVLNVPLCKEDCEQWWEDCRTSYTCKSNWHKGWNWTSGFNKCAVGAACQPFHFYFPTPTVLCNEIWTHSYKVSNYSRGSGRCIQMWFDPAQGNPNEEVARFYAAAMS
substance,measurement,setting,value
Fc-Sec-His/folate-alkyne: Fc-Sec-His folate conjugate equipped with an alkyne group; biotin-azide clicked on (chain (part 1 of 2) EPKSSDKTHTCPPCP; chain (part 2 of 2) A[Sec]([folate‑alkyne-biotin‑azide])HHHHHH; not fully specified; cysteine pairing not given here; also: biotin-azide clicked on),folate binding after biotin-azide click onto alkyne conjugate,folate receptor,retained its folate binding properties
"Fc-Sec-LLP2A: LLP2A coupled to Fc-Sec using the PEG-SU-Lys-Lys-mal trifunctional linker with biotin reporter (chain (part 1 of 2) EPKSSDKTHTCPPCP; chain (part 2 of 2) Ala-X; not fully specified (some residues); cysteine pairing not given here; also: LLP2A coupled via PEG-SU-Lys-Lys-mal trifunctional linker with biotin reporter, site not given here)",binding to lymphoma cells in the presence of anti-integrin α4 mAb,integrin α4,diminished binding
Rituximab-Sec-His/fluorescein: Rituximab-Sec-His conjugated at Sec to fluorescein-5-maleimide (FITC derivative with maleimide moiety),complement-dependent cytotoxicity with rabbit complement,Raji cells [1]; listed as Rituxi-Sec-His/fluorescein,as potent as Rituximab
same,complement-dependent cytotoxicity with rabbit complement,Raji cells [1]; listed as Rituximab-Sec-His/FITC,equal cytotoxicity
same,fluorescence signal on Raji cells after exposure of protein to FITC maleimide derivative,Raji cells [2],clear and homogenous signal
Rituximab-stop: Rituximab protein without inserted selenocysteine,fluorescence signal on Raji cells after exposure of protein to FITC maleimide derivative,Raji cells [2],only basal levels
Rituximab: commercially available CD20 antibody [reference compound],serum signal over the course of the experiment,[3],only marginal weakening
same,complement-dependent cytotoxicity with rabbit complement,Raji cells [1],strong cytotoxic effect
same,"cytotoxicity of antibody alone, without rabbit serum","Raji cells [1]; no rabbit serum, FIG. 12A",neither the antibody nor rabbit serum alone mediated complement-dependent cytotoxicity
same,binding to Raji cells,"Raji cells [2]; 0.6 μM, 1 hour on ice, FIG. 11A",equal affinities
